Test results as given in US20190083615A1 (Merck Sharp & Dohme, published 2019).

T1: human LAG3-huFc recombinant protein (human, UniProt P18627 23-450, limits assumed, biotinylated in the runs with humanized and chimeric antibodies (Example 11))
T1 construct: also called human LAG3-Fc; huLAG3-huFc; not shown: human Fc
T1 sequence: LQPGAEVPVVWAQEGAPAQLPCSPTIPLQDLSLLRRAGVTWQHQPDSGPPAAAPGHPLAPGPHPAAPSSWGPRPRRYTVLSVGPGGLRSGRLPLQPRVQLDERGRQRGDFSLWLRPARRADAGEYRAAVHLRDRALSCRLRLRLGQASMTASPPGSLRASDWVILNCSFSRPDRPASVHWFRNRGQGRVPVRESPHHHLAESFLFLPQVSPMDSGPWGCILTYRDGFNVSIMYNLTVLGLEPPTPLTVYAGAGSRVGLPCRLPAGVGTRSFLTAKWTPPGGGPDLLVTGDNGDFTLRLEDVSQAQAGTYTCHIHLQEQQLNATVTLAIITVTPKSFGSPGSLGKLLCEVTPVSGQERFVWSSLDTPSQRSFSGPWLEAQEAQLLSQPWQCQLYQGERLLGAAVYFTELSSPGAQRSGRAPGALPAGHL

T2: human LAG3 (Lymphocyte Activation Gene-3) expressed on cells (human, UniProt P18627 23-525)
T2 construct: also called hLAG3; CD223
T2 sequence: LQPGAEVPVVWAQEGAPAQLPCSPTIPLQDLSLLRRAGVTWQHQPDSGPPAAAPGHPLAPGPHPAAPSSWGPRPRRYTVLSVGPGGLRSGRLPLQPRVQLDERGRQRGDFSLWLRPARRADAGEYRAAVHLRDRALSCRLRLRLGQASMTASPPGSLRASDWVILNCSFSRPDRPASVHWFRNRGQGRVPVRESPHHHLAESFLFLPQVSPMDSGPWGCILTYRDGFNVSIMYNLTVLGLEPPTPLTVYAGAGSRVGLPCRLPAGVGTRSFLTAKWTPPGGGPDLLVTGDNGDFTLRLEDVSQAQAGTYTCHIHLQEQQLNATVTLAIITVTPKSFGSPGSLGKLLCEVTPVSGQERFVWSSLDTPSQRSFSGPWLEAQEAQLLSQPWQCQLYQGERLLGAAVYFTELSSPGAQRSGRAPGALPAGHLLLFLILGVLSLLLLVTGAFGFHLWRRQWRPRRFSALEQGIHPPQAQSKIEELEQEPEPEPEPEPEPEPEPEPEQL

B1: Ab6: humanized light chain 45AGX Humanized x[LAG3_H] mAb (LB145.22D2.E1.D1 (VL3)) Kappa (PX) and humanized heavy chain 73AHD Humanized x[LAG3_H] mAb … (antibody)
heavy: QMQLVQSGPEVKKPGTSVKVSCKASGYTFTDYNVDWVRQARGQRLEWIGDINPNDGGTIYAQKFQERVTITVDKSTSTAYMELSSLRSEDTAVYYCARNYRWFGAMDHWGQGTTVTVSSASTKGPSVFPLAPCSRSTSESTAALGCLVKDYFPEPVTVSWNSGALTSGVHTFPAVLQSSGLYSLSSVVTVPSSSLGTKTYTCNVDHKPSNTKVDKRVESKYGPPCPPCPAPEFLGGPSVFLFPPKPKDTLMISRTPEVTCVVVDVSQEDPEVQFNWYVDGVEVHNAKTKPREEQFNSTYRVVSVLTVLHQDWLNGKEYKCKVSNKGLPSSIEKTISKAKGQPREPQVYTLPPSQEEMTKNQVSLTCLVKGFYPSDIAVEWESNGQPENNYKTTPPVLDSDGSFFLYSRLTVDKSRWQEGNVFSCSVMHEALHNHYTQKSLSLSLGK
light: DIVMTQTPLSLSVTPGQPASISCKASQSLDYEGDSDMNWYLQKPGQPPQLLIYGASNLESGVPDRFSGSGSGTDFTLKISRVEAEDVGVYYCQQSTEDPRTFGGGTKVEIKRTVAAPSVFIFPPSDEQLKSGTASVVCLLNNFYPREAKVQWKVDNALQSGNSQESVTEQDSKDSTYSLSSTLTLSKADYEKHKVYACEVTHQGLSSPVTKSFNRGEC
notes: Humanized 22D2 N55D, IgG4 S228P/kappa; also called Hu22D2 VH6/VL3 N55D (Ab 6); hu22D2 VH6/VL3 N55D
B2: Ab8: humanized light chain 45AGX Humanized x[LAG3_H] mAb (LB145.22D2.E1.D1 (VL3)) Kappa (PX) and humanized heavy chain 80AHG Humanized x[LAG3_H] mAb … (antibody)
heavy: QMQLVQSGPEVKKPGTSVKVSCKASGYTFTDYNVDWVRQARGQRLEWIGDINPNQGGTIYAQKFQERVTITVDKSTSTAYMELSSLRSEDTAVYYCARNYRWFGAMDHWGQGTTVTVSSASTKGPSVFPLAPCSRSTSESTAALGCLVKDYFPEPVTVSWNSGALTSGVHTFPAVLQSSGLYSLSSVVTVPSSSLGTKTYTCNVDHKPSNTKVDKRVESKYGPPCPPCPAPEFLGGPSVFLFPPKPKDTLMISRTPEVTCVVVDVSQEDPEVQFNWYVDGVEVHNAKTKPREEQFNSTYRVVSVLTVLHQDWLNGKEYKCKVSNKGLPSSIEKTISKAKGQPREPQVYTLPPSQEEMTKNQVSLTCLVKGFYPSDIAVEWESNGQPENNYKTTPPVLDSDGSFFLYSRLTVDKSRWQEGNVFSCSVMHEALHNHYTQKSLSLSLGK
light: B1 light
notes: Humanized 22D2 N55Q, IgG4 S228P/kappa; also called Hu22D2 VH6/VL3 N55Q (Ab 8); hu22D2 VH6/VL3 N55Q

How the values were obtained:
[1] = molecular target: T1, human LAG3-huFc recombinant protein; assay: flow cytometry, blockade of biotinylated human LAG3-huFc binding to MHC class II on Daudi cells, streptavidin-PE
Method: Mouse anti-human LAG3 and humanized anti-LAG3 clones were tested for their ability to block hLAG3 interaction with human MHC Class II. Daudi cells (ATCC #CCL-213) were used as a cell line positive for human MHC class II expression. Daudi cells were blocked with 10 ug/ml of goat IgG in HBSS and 2% BCS on ice for 30 minutes and 0.5×10⁶ cells/sample were aliquoted into a 96-well V-bottom plate and blocking buffer removed. […] Cells were pelleted by centrifugation at 1200 rpm and washed twice with HBSS/2% BCS. […] Cells were washed twice as described above, resuspended in HBSS/2% BCS and read on the FACSCalibur.

[2] = molecular target: T2, human LAG3 (Lymphocyte Activation …); assay: flow cytometry, PHA-activated human CD8+ T cells (3 donors)
Method: (§1) Binding of LAG-3 mAb clones to primary T-cells was assessed using human and cynomolgous monkey (cyno) peripheral blood mononuclear cells (PBMC). Human blood was obtained from the local donors; cyno blood was obtained from Bioreclamation. PBMC were isolated from the whole blood using Ficoll-Paque Plus (GE Healthcare, Cat# 17-1440-03) density gradient centrifugation at 524×g for 40 minutes. PBMC were collected from the medium:plasma interface and washed 2 times with phosphate buffered saline (PBS). The residual red blood cells were lysed using ammonium-chloride-potassium red blood cell lysing solution (ACK, GIBCO, cat# A10492-010). Cynomolgus monkey or human PBMC (3×10⁶/ml) were stimulated with 4 μg/ml PHA (Sigma, L2769) for 48 h and 20 h, respectively. For flow cytometric analysis, 1×10⁶ PHA-activated PBMCs were used per staining in 50 μl FACS staining buffer (BD, cat# 554657). LAG-3 mAb clones or correspondent isotype controls were incubated with human or cyno PBMS followed by detection using goat anti-mouse IgG-PE (BD 550589). […] Sample acquisition was performed on an LSR II flow cytometer and the data were analyzed using FlowJo software version 10.0.6 (Tree Star, Inc.).
(§2) The data represent 3 human and 3 cynomolgus donors after stimulation with 4 ug/ml of PHA for 40 hours prior to staining.

[3] = molecular target: T3, human CD4 (human, UniProt P01730 26-458); assay: BiaCore (SPR)
T3 construct: whole, on cells; Tested on transfected L-cells by FACS and also by BiaCore

[4] = molecular target: T2, human LAG3 (Lymphocyte Activation …); assay: cell based KinExA, BaF/3 cells transfected with human LAG3 (n=3)
Method: The affinities of the LAG3 antibodies for LAG3 were determined using a cell based Kinetic Exclusion Assay (KinExA). Cell based KinExA can be used to measure the affinity of a molecule for a binding partner on a cell surface (Rathanaswami et al. Analylitical Biochemistry 373(1): 52-60 (2008); Xie et al. J. Immunol. Methods 304 (1-2): 1-14 (2005)). In this case, BaF/3 cells were stably transfected with human and cynomolgus monkey LAG3 proteins. Transfected cells or the parental BaF/3 control cell line were grown to a density of 1.7×10⁶ to 3.2×10⁶ cells per ml at 37° C., 120 RPM, 5% CO₂, in 1X RPMI 1640 media with 10% FBS, 10 ng/ml IL-3, 5 μg/ml puromycin. Cells were concentrated, mixed with 15 pM or 150 pM antibody in cell culture media and incubated 24 to 48 hours at room temperature while rotating at 20 to 30 RPM. Cells were present at a top concentration of 2×10⁷ cells per ml (parental BaF/3 or cynomolgus LAG3 transfectants) or 1×10⁷ cells per ml (human LAG3 transfectants) and diluted in a 2-fold, 18 member series. The cells were pelleted and free antibody in the supernatant was measured using a KinExA 3200 instrument (Sapidyne, Id., USA). […] Antibody on the beads was labeled with 1.5 μg/ml Alexa Fluor® 647 conjugated goat anti-human (Fab′)₂ (Jackson ImmunoResearch Laboratories), washed and the fluorescent signal was read all using the KinExA™ 3200. […]

[5] = molecular target: T2, human LAG3 (Lymphocyte Activation …); assay: flow cytometry, PHA-activated human CD4+ T cells (3 donors)
Method: as §1, §2

[6] = molecular target: T2, human LAG3 (Lymphocyte Activation …); assay: cell based KinExA, BaF/3 cells transfected with human LAG3 (n=2)
Method: The affinities of the LAG3 antibodies for LAG3 were determined using a cell based Kinetic Exclusion Assay (KinExA). Cell based KinExA can be used to measure the affinity of a molecule for a binding partner on a cell surface (Rathanaswami et al. Analylitical Biochemistry 373(1): 52-60 (2008); Xie et al. J. Immunol. Methods 304 (1-2): 1-14 (2005)). In this case, BaF/3 cells were stably transfected with human and cynomolgus monkey LAG3 proteins. Transfected cells or the parental BaF/3 control cell line were grown to a density of 1.7×10⁶ to 3.2×10⁶ cells per ml at 37° C., 120 RPM, 5% CO₂, in 1X RPMI 1640 media with 10% FBS, 10 ng/ml IL-3, 5 μg/ml puromycin. Cells were concentrated, mixed with 15 pM or 150 pM antibody in cell culture media and incubated 24 to 48 hours at room temperature while rotating at 20 to 30 RPM. Cells were present at a top concentration of 2×10⁷ cells per ml (parental BaF/3 or cynomolgus LAG3 transfectants) or 1×10⁷ cells per ml (human LAG3 transfectants) and diluted in a 2-fold, 18 member series. The cells were pelleted and free antibody in the supernatant was measured using a KinExA 3200 instrument (Sapidyne, Id., USA). […] Antibody on the beads was labeled with 1.5 μg/ml Alexa Fluor® 647 conjugated goat anti-human (Fab′)₂ (Jackson ImmunoResearch Laboratories), washed and the fluorescent signal was read all using the KinExA™ 3200. The data from the 15 pM and 150 pM concentrations of each antibody were fit simultaneously using KinExA™ Pro n-Curve Analysis software version 4.0.11 (Sapidyne).

Binder | IC50 [1] [nM] | EC50 [2] [nM] | binding result [3] | Kd [4] [nM] | EC50 [5] [nM] | Kd [6] [nM]
B1 | 2.4 | 0.033 | no binding | 0.002 | 0.039 | 
B2 | 2.5 | 0.035 |  |  | 0.041 | 0.011
